Assay [1] addresses C-terminal domain (CTD) of major ampullate spidroin 1 (MaSp1) from Euprosthenops australis, wild type (Euprosthenops australis). Put plainly: far-UV CD equilibrium chemical denaturation at varying protein concentration; urea 0-10 M, CD at 222 nm, 5-30 µM CTD, 50 mM phosphate pH 7.0, ionic strength 200 mM (KCl), 298 K, reducing (1 mM DTE); three-state model N2-I2-D; dimeric intermediate to denatured monomers.

Assay [2] concerns the target CTD of MaSp1 from E. australis modified at C82 with AttoOxa11 (Euprosthenops australis). Nature of the assay: stopped-flow fluorescence spectroscopy (refolding and dimerisation of denatured monomers); sub-µM CTD-AttoOxa11 in 8 M urea mixed 1:10 into 50 mM phosphate pH 7.0, ionic strength 200 mM (KCl), 298 K; denatured monomers to dimeric intermediate I2.
The target is the same in assay [3]. Nature of the assay: fluorescence chasing experiment (dissociation kinetics); 60, 120 and 180 nM CTD-AttoOxa11 dimers chased with 20 µM chemically reduced wild-type CTD, manual mixing, 298 K, emission at 677 nm; bi-exponential fit; dimer to monomers.

The substance “C-terminal domain (CTD) of major ampullate spidroin 1 (MaSp1) from Euprosthenops australis, wild type (domain or fragment)” returned a stoichiometry N in assay [1] of 2.

In assay [2], “CTD of MaSp1 from E. australis modified at C82 with AttoOxa11 (domain or fragment)” yielded a kon of 5.2e+07 M⁻¹ s⁻¹. In addition, in assay [3], the koff stood at 0.008 s⁻¹; the observed time constant of dissociation, first exponential, 60 nM is 51 s; the observed time constant of dissociation, first exponential, 120 nM is 37 s; the observed time constant of dissociation, first exponential, 180 nM came to 34 s. Further, in assay [3], the observed time constant of dissociation, second exponential, 60 nM worked out at 208 s; the observed time constant of dissociation, second exponential, 120 nM was 186 s; the observed time constant of dissociation, second exponential, 180 nM was 194 s; the time constant of dissociation (mean weighted by amplitudes) turned out to be 128 s.

Source of the values: article PMC6235870.
